test: soluble on expression in E. coli; label from the status in PepcDB or PDB records

| Sequence | soluble on expression in E. coli |
| --- | --- |
| MSLTDVMFKSQIANQLKNLRKSRGLSLDATAQLTGVSKAMLGQIERGESSPTIATLWKIASGLEASFSAFFANDPQLLSSERSFPDDLNMKIHTLFPYAADTGLEIFEITLLDHHQQMSSPHALGVIEYIHVLEGIMKVFFDEQWHELQQGEHIRFFSDQPHGYAAVTEKAVFQNIVAYPRREGGSHHHHHH | soluble |
| GMSTQENVQIVKDFFAAMGRGDKKGLLAVSAEDIEWIIPGEWPLAGTHRGHAALAALLQKASEMVEISYPEPPEFVAQGERVLVVGFATGRVKSTNRTFEDDWVFAITVRKSKVTSIREYIDTLALARATNFNAT | soluble |
| MQSAIVLGGGMIGVSAALHLRQRGWTVTLVDRREPGRETSYGNAGMIQAEAVRPYPMPRDLASLLKIATGRTNDVRYSLSSLHLHIEPLLRYWWHSAPKRHREAIDAWARLIAYATAEHDILIREAHADNLIRRAGYRALYRDAAALDLSIKAAEEDQHEFGVNFRVLSGSELAKAEPVLRDDLPGAIHWLDTWTVSDPGALVTAYAELFERLGGRIVLGDAQSLQQTAAGWSVDTDQGRIDAATAVVTLGPWSPDLLYKFGYRIPLVRKRGYHMHYSGGASLDLPLIDKAGGYAMGPMAKGIRITTGAELTSPDALATPVQLASAEASARELIDLGKRVEPDPWFGTRPCTPDMLPVLGPAPLHPGLWMNFGHGHQGFTLGPATGRLLAEMMSGETPAIDPTPYRPERFLEHHHHHH | soluble |
| MPLTLYQRDDCHLCDQAVEVVAQARAGDFDSVFIDDDAALEAVYGARVPVLRDARGRELEWPFDRVRLRAWLDDDAERLEHHHHHH | not soluble |
| RKVAAKMMQHQLEKHLKALNFDNPLFWTSLPTAADVCNAMNKRGLIYYCGDDFGALAGVDHQTVMEHERTLVDSADFILAASDKLAARFPDNKTTTLPHGVDFSLFSTPAEKASDLPNNGRKILGFYGSLSDWLDYRLIDQVAQHAPDWDLVFIGPNEFAHNPLPQRDNVHYLGPRAHHLLPSYSQHWDASWLPFVDNAQIKACNPLKLLE | not soluble |
| MKRQLFTVLVCMTMFAVASCGEKKGKDKFEERIEKAKESVEDVVDDAKDQIEDKADEVGETLDKAKSKIEKAKKKLDEANRD | not soluble |
| MGSDKIHHHHHHMAQQDRLQQMREWIKTTPEISLDQLMGEYRISRDTARRDLIQLEREGKIIRVKNGLIRVGTNTTIQYDRRTEQPEKNRIAKHAVRYVQPDQTIILDAASTVARMTVHLPAQPIQIITNALAVVEQLEARPEIDLYVTGGKWDRHARSLVGIKTADDILNYQVDRVFLGACGLTEQGVFAENLEEAIVKKAMIRSSAEVIVLADHTKFEKRFLHKVCDLDQIDILITDERPTEQWQKWLQEADILLETAEEE | not soluble |
| MGKEKSHINVVVIGHVDSGKSTTTGHLIYKCGGIDKRTIEKFEKEAAELGKGSFKYAWVLDKLKAERERGITIDIALWKFETPKYQVTVIDAPGHRDFIKNMITGTSQADCAILIIAGGVGEFEAGISKDGQTREHALLAFTLGVRQLIVAVNKMDSVKWDESRFQEIVKETSNFIKKVGYNPKTVPFVPISGWNGDNMIEATTNAPWYKGWEKETKAGVVKGKTLLEAIDAIEQPSRPTDKPLRLPLQDVYKIGGIGTVPVGRVETGVIKPGMVVTFAPAGVTTEVKSVEMHHEQLEQGVPGDNVGFNVKNVSVKEIRRGNVCGDAKNDPPKGCASFNATVIVLNHPGQISAGYSPVLDCHTAHIACRFDELLEKNDRRSGKKLEDHPKFLKSGDAALVKFVPSKPMCVEAFSEYPPLGRFAVRDMRQTVAVGVIKSVDKTEKAAKVTKAAQKAAKK | soluble |
| SDEFVNLKETELRLGLPGTDNVCEAKERVSCCNNNNKRVLSTDTEKEIESSSRKTETSPPRKAQIVGWPPVRSYRKNNIQSKKNESEHEGQGIYVKVSMDGAPYLRKIDLSCYKGYSELLKALEVMFKFSVGEYFERDGYKGSDFVPTYEDKDGDWMLIGDVPWEMFICTCKRLRIMKGSEAKGLGCGV | soluble |
| MGSDKIHHHHHHMITAEECRTYKEFVDLYQSYLYPLLGARLSRMYSPKNKVIIDMGTGPGYLSIQLAKRTNAHVHAVDINPAMHEIAQEEAKKSGVSSLISFDLEDVHHLSYADQYADFIVSYSCLHHWEDVVKGLKECYRVLAPGGKIVILDTFNPQGSHLEIMRKQIKEPEYFRFVREAFEESYSFEDIHQFVQDAGIPNYSLETFHFLPEDFIESLDELEDAPLWEQNDQSTDHEIESVTWMLTIEKEKEGAL | not soluble |
| MGSDKIHHHHHHMDYRKYFEKLKSDYVYLDNAATTPPLKSVMKKALEFLENYSSIHRGTGYLAKMSTDSYENSRRVIGEYLHATKDDVVVFTANTTDSINKFALLYPFMGNEGVLISDIEHSSNMLPWFKNSGRVKMFNTGKSNKINPYSIEEELYRNPQIKIVSICGASNLTGYLTPLRDIYKICKKYGVYLLVDASQIAPHFKITLDDCDFIAFSGHKMYAPFGAGVLAGRKDVLSHIGLAPTGGGNIVYIGKRGEVIYKEPPLSLEAGTPNGLGAVTVAEAMRVLNEDIGWENMNQHNKRINEIGYKYLSDLSNIKLYYPKDQDIRINRTPTFVFDFKNVGTKVGCDILKENKIGVRCGTFCLYRLIEKVKNIDEYERKRLYRNYIVPNRELPERYSLVRASAGLMTTEEDFLRLRAAIKKVE | not soluble |
| KTNTATVKVLPISMSDEGDSFLVKDSLGENKIPKNPSKVVILDLGILDTFDALKLNDKVVGVPAKNLPKYLQQFKNKPSVGGVQQVDFEAINALKPDLIIISGRQSKFYDKLKEIAPTLFVGLDNANFLSSFENNVLSVAKLYGLEKEALEKISDIKNEIEKAKSIVDEDKKALIILTNSNKISAFGPQSRFGIIHDVLGINAVDENIKVGTHGKSINSEFILEKNPDYIFVVDRNVILGNKERAQGILDNALVAKTKAAQNKKIIYLDPEYWYLASGNGLESLKTMILEIKNAVK | soluble |
| MSGIKSLELLLQSMSPELMAGDYVFCTVNGALSDYLSLEPIATFREPEGLTLVLEAEKAQQAGLESSALFSLITLTVHSSLEAVGLTAAFATKLAEHGISANVIAGYYHDHIFVQKEKAQQALQALGEFAQA | soluble |
| MSLTALSSVDFCLPEHITPEIFLRDYWQKKPLVIRNGLPEIVGQFEPQDIIELAQNEDVTARLVKTFSDDDWKVFFSPLSEKDFQKLPEKWSVLVQNLEQWSPELGQLWNKFGFIPQWQRDDIMVSYAPKGGSVGKHYDEYDVFLVQGYGHRRWQVGKWCDASTEFKPNQSIRIFDDMGELVIDEVMNPGDILYIPARMAHYGVAEDDCLTFSFGLRYPNLSNLIDGISKGFCHQDPDLNLSEFDLPLRLSQSEQRTGKLADENIQAMKQLLLDKLAHSEAFDTLFKQAVASAVSSRRYELLVSDEMCDPDEVRSILEEDGAFLSQDNNCKLLYTENPLRIYANGEWLDELNIIESEVLKRLSDGESLDWAFLSDLANKTEDPETSMDLLLDSICNWVDDGWALIEEGGSHHHHHH | soluble |
| MEEIKPASASCVSKEKPSKVSDLISRFEGGSSLSNYSDLKKESAVNLNAPRTPGRHGLTTTPQQKLLSQHLPQRQGNDADKTQGAQTCVANGVMAAQNQMECEEEKAATLSSDTSIQASEPLLDTHIVNGERDETATAPASPTTDSCDGNASDSSYRTPGIGPVLPLEERGAETETKVQERENGESPLELEQLDQHHEMKETNEQKLHKIANELLLTERAYVNRLDLLDQVFYCKLLEEANRGSFPAEMVNKIFSNISSINAFHSKFLLPELEKRMQEWETTPRIGDILQKLAPFLKMYGEYVKGFDNAMELVKNMTERIPQFKSVVEEIQKQKICGSLTLQHHMLEPVQRIPRYEMLLKDYLRKLPPDSLDWNDAKKSLEIISTAASHSNSAIRKMENLKKLLEIYEMLGEEEDIVNPSNELIKEGQILKLAARNTSAQERYLFLFNNMLLYCVPKFSLVGSKFTVRTRVGIDGMKIVETQNEEYPHTFQVSGKERTLELQASSAQDKEEWIKALQETIDAFHQRHETFRNAIAKDNDIHSEVSTAELGKRAPRWIRDNEVTMCMKCKEPFNALTRRRHHCRACGYVVCWKCSDYKAQLEYDGGKLSKVCKDCYQIISGFTDSEEKKRKGILEIESAEVSGNSVVCSFLQYMEKSKPWQKAWCVIPKQDPLVLYMYGAPQDVRAQATIPLLGYVVDEMPRSADLPHSFKLTQSKSVHSFAADSEELKQKWLKVILLAVTGETPGGPNEHPATLDDHPEPKKKSEC | soluble |
| MDVSAYPFFRRDMSWLSFNERVLMEAADRTLPVYDRIKFLSIFSSNLEEFYTVRVAYHQAVLQKRRDRSEAEEDSDADAHILQAIRETVIRQDELYYRIFYDQILPTLEEHGIRLRTHAPTHPDHKAYLRRFFHEEIFPLLYPMLLLPSKVRTFIRSGRVYLAVRLKEKETDEAYSYALLNVPTDGLPRFVELPRLQTDTFYYYSFLEDIIKEHLDVVFPGYEVMDSYSIKVSRDADLLLDAQRPEDLPGEIRKKVKTRKLGAPTRFMYDGRMPDEVLRYICSSCDIDPEEAIRSGNYVNLQDLAMLPNPFAPRLETLTPEPLLSKHLEQAPSLMEGIRRKDYLIHVPYYTYDYVVRLLMEAAISPDVSEIRLTQYRVAENSSIISALEAAAQSGKKVSVFVELKARFDEENNLRLSERMRRSGIRIVYSMPGLKVHAKTALILYHTPAGERPQGIALLSTGNFNETTARIYSDTTLMTANTDIVHDVYRLFRILDGDPEPARFSRLLVARYNMGEAITNLIEREIENVKRGKRGYMLLKMNGLQDKNVITQLYRASEAGVEIDLIVRGICCLVPDMPQSRNIRVTRLVDMYLEHSRIWCFHNGGKEEVFISSADWMKRNLYNRIETACPVLDPALRREIIDILEIQLRDNIKACRIDSSLNNIYKHNSDEKPVRAQAAIYRYLKGKEEATPAAK | not soluble |
| MDMDKRSSDLEAALRIVLQQTLNIVLQAQEKLPEANVVPSTPPTSPSTDIGEQMASFWNIPSPNPPATSATSSTSPEEEIPCICFNCWGNVAAAANSKTWKSPNQADFRSAAAPLTEEKSHA | not soluble |
| MTTAGYYAAVDWGTSSFRLWIIGEDGAVLAERRSAEGMTTAAKTGFHTILDGHLAAVSAPAHLPIIICGMAGARQGWKEAGYIETPAALAEIAGRATAIPDVDRDIRILPGLAQRDRRHPDVMRGEETQLLGAAAHLGAGSHLVCMPGTHSKWVRLADDRVEGFSTFMTGELFDTIARHTILSHAVAEADTFAAGSAAFTDAVSRTRENPALATNLLFSVRAGQLLHGTAAADARAQLSGTLIGLEIAGALAGSGSVDGVCLVGSGGLGTLYRTALESQGLNVRAVDADEAVRAGLSAAARAIWPL | not soluble |
| MTCVGDIMLAGSATPTLSRSGYDYPFAKTAQELRRGDIAMGNLEAPLTERGTEYRDKTYRFRTNPIAAAALKRAGFSVLTLANNHMMDYGNEGLQDTLATLSRHGIAHTGAGASLAEARREAVVSVRGKRIAFLAYSLTFPSEFYAGPNRPGTAPGYAPHVREDIRRAKAEADYVVVSFHWGAERAEFPKQYQTETARLAIDAGADAIIGHHPHVLQGIEFYRGKPILYSLGNFAFGSRSTAADRSVMARLTLSDEETSVELVPLNVLHRETRYQPGILAGRKGAEVIERLNRLSQPFGTVISGSAGRFRARTSGADQRIATRLEHHHHHH | not soluble |
| MGSDKIHHHHHHMATTESFAQTLAAKQPRLLAAFKHIIAQNHLAHAYLFAGMEGAGQPELAHWIAQRLFCLHINDGEPDGTCEECVRIANGSHPDIVTVAPEGQRIHVDQVRYLKAEFSKSAVEGNRKLFIINDAEKMTASAANSLLKFIEEPSGNVTALLLTTNKQLMLPTIISRTQVIEFPPLNAQALQQTFEQAGIAPNQAQMLRGLTNSVTQAQALLADDWLPQAAQALWRWFDQAVKGDPRSFVAVQVNLVGLAKDADHQLVMLDLIAALFQDLLQLHFEVATTALTFGQYQKELAGLTAEVSDEQLIAATELALTAKRQLASNISFQNVLEGLTLKLWPIFQTNA | not soluble |

From the DeepSol protein solubility set
